Laboratory results reported in US20260232759A1, “PEPTIDES THAT INHIBIT INFECTION BY SARS-COV-2, THE VIRUS THAT CAUSES COVID-19 DISEASE” (Wisconsin Alumni Research Foundation, priority 2021, published 2026).
No end group written: not given here.

B1: α/β-SARS2 HRC QE-8 (peptide)
peptide: DISQINASVVNIEYEIXKLEEVAXKLEESLIDLQELGSGSGC
modifications: not fully specified (C-terminus); also: α/β-peptide, β-residue positions not given here, alias: peg4 chol conjugate
B2: α/β-SARS2 HRC QE-6 (peptide)
peptide: DISQINASVVNIEYEIKKLEEVAXKLEESLIDLQELGSGSGC
modifications: not fully specified (C-terminus); also: α/β-peptide, β-residue positions not given here, alias: peg4 chol conjugate
B3: α/β-SARS2 HRC QE-7 (peptide)
peptide: DISQINASVVNIEYEIXKLEEVAXKLEESLIDLQELGSGSGC
modifications: not fully specified (C-terminus); also: α/β-peptide, β-residue positions not given here, alias: peg4 chol conjugate
B4: α/β-SARS2 HRC QE-5 (peptide)
peptide: DISQINASVVNIEYEIXKLEEVAKKLEESLIDLQELGSGSGC
modifications: not fully specified (C-terminus); also: α/β-peptide, β-residue positions not given here, alias: peg4 chol conjugate
B5: α/β-SARS2 HRC QE-17 (peptide)
peptide: DISQINASVVNIEYEIXKLEEVAXKLEESLIDLQELGSGSGC
modifications: not fully specified (C-terminus); also: α/β-peptide, β-residue positions not given here
B6: α/β-SARS2 HRC QE-15 (peptide)
peptide: DISQINASVVNIEYEIXKLEEVAXKLEESLIDLQELGSGSGC
modifications: not fully specified (C-terminus); also: α/β-peptide, β-residue positions not given here

Each binder was assayed against SARS-CoV-2 Spike protein (SARS-CoV-2), P0DTC2 (assay: cell-based or functional assay).
For B1, the inhibition of S-mediated cell-cell fusion (β-Gal complementation), IC50 was 100 nM. For B2, the inhibition of S-mediated cell-cell fusion (β-Gal complementation), IC50 was 20 nM and the inhibition of S-mediated cell-cell fusion (β-Gal complementation), IC90 was 100 nM. B3 was tested, and the inhibition of S-mediated cell-cell fusion (β-Gal complementation), IC50 was 20 nM and the inhibition of S-mediated cell-cell fusion (β-Gal complementation), IC90 was 100 nM. For B4, the inhibition of S-mediated cell-cell fusion (β-Gal complementation), IC50 was 1000 nM.

Target: SARS-CoV-2 Spike protein (SARS-CoV-2), P0DTC2
Test: cell-based or functional assay
Remark: another data set of the same source
For B5, the inhibition of S-mediated cell-cell fusion (β-Gal complementation), IC50 was 10 nM. For B3, the inhibition of S-mediated cell-cell fusion (β-Gal complementation), IC50 was 10 nM. For B6, the inhibition of S-mediated cell-cell fusion (β-Gal complementation), IC50 was 50 nM.
